For the test, the target named is human lactate dehydrogenase C (LDHC), recombinant wild type with C-terminal His6-tag (human) (UniProt P07864).

human lactate dehydrogenase C (LDHC), recombinant wild type with C-terminal His6-tag, sequence (P07864 whole entry): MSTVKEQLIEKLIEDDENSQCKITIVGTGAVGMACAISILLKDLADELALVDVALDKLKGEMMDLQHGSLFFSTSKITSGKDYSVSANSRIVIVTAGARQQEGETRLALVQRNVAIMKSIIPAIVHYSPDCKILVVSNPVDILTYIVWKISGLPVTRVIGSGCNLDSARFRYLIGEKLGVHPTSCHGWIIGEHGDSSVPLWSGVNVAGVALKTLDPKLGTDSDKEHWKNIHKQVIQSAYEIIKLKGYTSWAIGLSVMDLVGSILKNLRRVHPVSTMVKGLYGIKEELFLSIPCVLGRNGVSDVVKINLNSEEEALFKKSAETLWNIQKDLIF

Broadly, the stoichiometry N is a count of units in the complex or per binding partner. As for “human lactate dehydrogenase C (LDHC), recombinant wild type with C-terminal His6-tag (from UniProt P07864 1-332) (enzyme)”, the stoichiometry N was 4.

The values are drawn from PMC9136605.
